*1 amine or outer side, *2 acyl side, *3 side chain or, on linkers, in order; H or OH if unused. [ ]: non-standard residue; d: D form. The star is where a group is joined. Kb = biotinyl-L-lysine, O=C(CCCC[C@@H]1SC[C@@H]2NC(=O)N[C@@H]21)NCCCC[C@H](N[*:1])C(=O)[*:2]; 5FAM = O=C1OC2(c3ccc(O)cc3Oc3cc(O)ccc32)c2ccc(C(=O)*)cc21; Ahx = NCCCCCC(=O)O
Experiments:
[1] = Determination of LRET distance from Tb3+ luminescence lifetimes; format: physicochemical; conditions: for Energy Transfer: E from lifetimes; for Ro: Förster distance; for τDA: Tb3+ luminescence lifetime of donor in presence of acceptor fluorophore; for τD: Tb3+ luminescence lifetime of donor without acceptor fluorophore; for R: estimated distance between Tb3+ and fluorophore
Excerpt: The Tb^3+ luminescence lifetimes of the biosensors in their fluorophore conjugated and unconjugated forms were used to characterize the energy transfer and LRET parameters for each sensor (FIGS. 12A, 12B and 12C). LRET follows the same principles as FRET and can have the same theory applied to calculate the distance between the fluorophore acceptor and the terbium-peptide complex donor pair. The fundamental concept of Förster theory is resonance energy transfer is proportional to
where the percentage of energy transfer, E, can be determined from the lifetime measurements of the donor in the absence of the acceptor (peptide-terbium complex (donor) without the conjugated fluorophore (acceptor)) and the donor in the presence of the acceptor.
R0 the Förster distance is determined for each acceptor/donor pair and d
The luminescence decay rates peptide biosensor-Tb^3+ complexes with and without fluorophore conjugation are illustrated in FIG. 12A pSAStide-AF488:Tb^3+, FIG. 12B pSAStide-Cy5 and FIG. 12C 5-FAM-pSFAStide-A. Data represent the average±SEM of three individual replicates.

Lyn = Lyn (Homo sapiens, UniProt P07948); assay: ELISA-based chemifluorescent detection of substrate phosphorylation, Lyn; format: biochemical; conditions: anti-phosphotyrosine 4G10, Amplex Red
Chain of Lyn (P07948 whole entry, species assumed): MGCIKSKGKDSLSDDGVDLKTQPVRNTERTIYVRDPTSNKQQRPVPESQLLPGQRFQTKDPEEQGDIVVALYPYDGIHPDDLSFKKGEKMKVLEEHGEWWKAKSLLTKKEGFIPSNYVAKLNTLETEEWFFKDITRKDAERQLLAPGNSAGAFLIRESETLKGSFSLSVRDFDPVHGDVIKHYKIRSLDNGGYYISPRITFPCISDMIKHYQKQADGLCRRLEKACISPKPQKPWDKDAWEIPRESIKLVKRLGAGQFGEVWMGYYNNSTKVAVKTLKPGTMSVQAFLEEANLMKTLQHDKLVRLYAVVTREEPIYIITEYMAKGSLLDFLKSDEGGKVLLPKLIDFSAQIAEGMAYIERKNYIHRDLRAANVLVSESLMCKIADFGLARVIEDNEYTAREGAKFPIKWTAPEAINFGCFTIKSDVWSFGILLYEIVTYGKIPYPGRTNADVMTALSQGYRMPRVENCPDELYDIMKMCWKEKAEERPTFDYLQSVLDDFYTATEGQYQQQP
Procedure: (§1) Phosphorylation of SAStide and SFAStide-A were detected using a chemifluorescent ELISA-based assay (Lipchik et al. J Am Chem. Soc 2015, 137, 2484) in which the reaction mixture was quenched using EDTA and incubated in a 96-well neutravidin coated-plate to allow for affinity capture of the biotinylated substrates individually. The total amount of peptide in the quenched reaction mixture applied to each well was 37.5 pmol, which ensured that each well was saturated with peptide (15 pmol binding capacity) for analysis. The captured peptide was then incubated an anti-phosphotyrosine primary antibody (4G10) followed by a horseradish peroxidase-conjugated secondary antibody. Chemifluorescent detection was accomplished by incubating each well with Amplex Red reagent and hydrogen peroxide in phosphate buffer, which gave a fluorescent signal proportional to the amount of horseradish peroxidase-conjugated antibody in each well, and thus reports the degree of phosphotyrosine present.
(§2) The Validation of in vitro specificity of SAStide-Cy5 and 5-FAM-SFAStide-A using ELISA-based chemifluorescence is illustrated in FIG. 14. […] Aliquots were removed at designated time points, quenched with EDTA and alongside the TR-LRET detection as described in FIGS. 3A-F in the main text, the amount of phosphorylated substrate was also measured using ELISA-based detection.

Syk = target: T1, Syk (Homo sapiens, UniProt P43405); assay: ELISA-based chemifluorescent detection of substrate phosphorylation, Syk; format: biochemical; conditions: anti-phosphotyrosine 4G10, Amplex Red
T1 construct: EGFP (C)
Procedure: as §1, §2

| phosphorylation of the substrate by Lyn in vitro (Lyn) | phosphorylation of the substrate by Syk in vitro (Syk) | Substance | J [1] | Quantum Yield [1] | Energy Transfer [1] | Ro [1] [Å] | τDA [1] [ms] | τD [1] [ms] | R [1] [Å] |
| --- | --- | --- | --- | --- | --- | --- | --- | --- | --- |
| phosphorylated | – | 5-FAM-Ahx-GGEEDEDIYEELDEPGGKbGG ({5FAM-Ahx}-GGEEDEDIYEELDEPGG[Kb]GG-NH2) [5-FAM-SFAStide-A, Src-family kinase peptide biosensor labelled with 5-carboxyfluorescein] | 9.62 × 10^14 M^−1 cm^−1 nm^4 | 0.21 | 0.89 | 56.0 | 0.071 | 0.64 | 39.5 |
| – | phosphorylated | GGDEEDYEEPDEPGGCCy5GG [SAStide-Cy5] | 5.4 × 10^13 M^−1 cm^−1 nm^4 | 0.34 | 0.88 | 55.1 | 0.088 | 0.72 | 39.5 |

— patent publication US20160376632A1, “KINASE ACTIVITY DETECTION METHODS” (REGENTS OF THE UNIVERSITY OF MINNESOTA, priority 2014, published 2016)
